Measured values taken from patent US20220396615A1 (NANJING GENSCRIPT BIOTECH, published 2022).

Key:
[1] = biological target: T1, Tag-free human IL6 recombinant protein (GenScript, Cat. No. Z03034) (human, UniProt P05231 30-212); experiment: indirect ELISA, IL6 coated at 0.5 µg/ml, antibody titrated
T1 construct: Bought recombinant protein; The catalogue number is printed only for the immunogen, and the assays say only 'recombinant IL6 protein' or 'IL6'; also called recombinant IL6 protein; Interleukin 6
Experimental: The purified antibodies were evaluated for the binding ability to IL6 by indirect ELISA. The ELISA plate (Nunc) was coated with 0.5 μg/ml recombinant IL6 protein in PBS at 100 μl/well at 4° C. overnight. The plate was washed with PBS-T (0.05% Tween) and was blocked with PBST containing 1% BSA at 200 μl/well at 37° C. for 0.5 h. The blocking solution was then discarded. 100 μl 10 μg/ml purified antibody was added to the first well, and 3-fold gradient dilution was performed for 11 test concentration gradients in total. Incubation was then performed at room temperature for 1 h. The plate was washed with PBST for three times and incubated with horseradish peroxidase-conjugated goat anti-mouse/rat IgG (Fab-specific) (GenScript) at 100 μl/well at 37° C. for 0.5 h. The plate was washed with PBST for five times, and TMB chromogenic solution (GenScript) was then added and incubation was performed in dark for 15 min at room temperature. The reaction was stopped by adding 50 μl 1M HCl stop solution (Sigma). The plate was read at 450 nm by a microplate reader. The binding ability of the clones 8H10B7E6, 23A9H3, 29D6B5, 41A10B8, 49F10H6, 53A2F9 (rat), and 61G1D8 (rat) for recombinant protein IL6 was shown in FIG. 3.

[2] = biological target: T1, Tag-free human IL6 recombinant protein …; experiment: cell-based or functional assay

Binder	EC50 [1]	inhibitory IC50, IL6-dependent TF-1 cell proliferation [2]
49F10H6 (antibody, V domains shown, Mouse hybridoma clone; Made recombinantly in HEK293-6E cells as variable region + constant region and purified on protein A as IgG) VH: QVQLQQPGAELVKPGASVKMSCKASGYTFTNYIIHWIKQTPGQGLEWIGAIYPGNGDTSYSQKFKDKATLTADRSSSTAYMQLSSLTSEDSAVYYCARGDAGYSAWFAYWGQGTLVTVSA VL: NIVLTQSPASLAVSLGQRATISCSASESVDSYGNNFMHWYQQRPGQPPKLLIYLASKLESGVPARFSGSGSRTEFTLTIDPVEAEDAATYYCQQNNEDPLTFGAGTKLELK	< 0.025 µg/mL	
61G1D8 (rat) (antibody, V domains shown, Rat hybridoma clone; Made recombinantly in HEK293-6E cells as variable region + constant region and purified on protein A as IgG) VH: EVQLLESGGGLVQPGRSMKLSCAASGFTFSSFPMAWVRQTPSKALEWVATISPSGGTSYSRDSVKGRFTISRDNANSTLCLHMDSLKSEDTATYYCLRERIYNTYFDYWGQGVMVTVSS VL: DIRMTHSPASLSASLGETVSIECLPSEDISSDLAWYQQKPGKSPQLLIYNANTLPNGVPSRFSGSRSGAQYFLKINSLQSEDVATYFCQQYDSYPYTFGTGTKLELK	< 0.025 µg/mL	4.54 µg/mL
41A10B8 (antibody, V domains shown, Mouse hybridoma clone; Made recombinantly in HEK293-6E cells as variable region + constant region and purified on protein A as IgG) VH: EVKLEESGGGLVQPGGSMKLSCAASGFTFSDAWMDWVRQSPDKGLEWVAEIRSKTYHPATYYTKSVRGRFTISRDDSKSSVYLQMNNLGAEDTGIYYCTRPRYYGGYFDYWGQGTTLTVSS VL: not shown	< 0.025 µg/mL	
53A2F9 (rat) (antibody, V domains shown, Rat hybridoma clone; Made recombinantly in HEK293-6E cells as variable region + constant region and purified on protein A as IgG) VH: QVQLKESGPGLVQPSQTLSLTCTVSGFSLTSHTVSWIRQPPGRGLEWMGKMWSNGDTDYDSAIRSRLSITRDTSKSQVFLKINSLQTEDTAMYFCARYYFSSYGGGYFDYWGQGVMVTVSS VL: DTVLTQSPALAVSLGQRVTISCRASKSVSTYMHWYQQKSGQQPKLLIYSASNLESGVPSRFSGSGSGTDFTLTIDPVEADDIANYYCQQSDELPDTFGAGTKLELK	0.04 nM	3.95 µg/mL

The remaining lines, values ahead:

EC50 [1]	inhibitory IC50, IL6-dependent TF-1 cell proliferation [2]	Binder
< 0.025 µg/mL		23A9H3 (antibody, V domains shown, Mouse hybridoma clone; Made recombinantly in HEK293-6E cells as variable region + constant region and purified on protein A as IgG) VH: QVQLQQSGAELAKPGASVKMSCKTSGYTFTNYWMHWVKQRPGQGLEWIGYVIPSTGYTDYNQSFKDKATLTADKSSNTAYMQVNSLTSEDSAVYYCASLLPGFAYWGQGTLVTVSA VL: DVVMTQTPLSLPVSLGDQASISCRSSQSLVDSNGNTYLHWYLQKPGQSPKLLIYKVSNRFSGVPDRFSGSGSGTDFTLKISRVEAEDLGVYFCSQSTHVPPTFGGGTKLEIK
< 0.025 µg/mL		29D6B5 (antibody, V domains shown, Mouse hybridoma clone; Made recombinantly in HEK293-6E cells as variable region + constant region and purified on protein A as IgG) VH: QVQLQQSGAELAEPGASVKMSCKASGYNFNNYWMHWVKQGPGQGLEWIGYIDPRTASIYYNQKFKDKATLTADKSSSTAYMQLSSLTSEDSAVYYCARILYGKYDVWGAGTTVIVSS VL: DVVLTQTPLSLPVSLGNQASISCRSSQSLVDSNGNTYLHWYLQKPGQSPKVLIHKVSNRFSGVPDRFSGSGSGTDFTLKISRVEAEDLGVYFCSQSTHVPPTFGGGTKLEIK
